Laboratory results reported in US20060252697A1 (ANTYRA, published 2006).
Where no end group is shown, it is not given here.

Columns and labels:
[1] = target: rat growth hormone binding protein (rGHBP) (rat) (UniProt P16310); assay: TRFD competition on rGHBP-coated wells, vs. bGH
[2] = target: rat growth hormone binding protein (rGHBP) (rat) (UniProt P16310); assay: TRFD competition on rGHBP-coated wells, vs. bP#418 (SEQ ID NO: 12)
[3] = target: rat growth hormone binding protein (rGHBP) (rat) (UniProt P16310); assay: TRFD competition on rGHBP-coated wells, vs. bP#447 (SEQ ID NO: 11)
[4] = target: rat growth hormone binding protein (rGHBP) (rat) (UniProt P16310); assay: phage ELISA competition on rGHBP (100 ng/well); blocked: H5 phage
[5] = target: rat growth hormone binding protein (rGHBP) (rat) (UniProt P16310); assay: TRFD, ED50 of specific binding of biotinylated ligand to rGHBP-coated wells
[6] = target: humanized rat growth hormone binding protein (‘hu’GHBP) (rat (humanized by one substitution)) (UniProt P16310); assay: phage ELISA on ‘hu’GHBP-coated wells, +BSA (1 µM)
[7] = target: humanized rat growth hormone binding protein (‘hu’GHBP) (rat (humanized by one substitution)) (UniProt P16310); assay: phage ELISA on ‘hu’GHBP-coated wells, no competitor
[8] = target: humanized rat growth hormone binding protein (‘hu’GHBP) (rat (humanized by one substitution)) (UniProt P16310); assay: phage ELISA on ‘hu’GHBP-coated wells, competitor human GH (+hGH, 1 µM)
[9] = target: T1, rat growth hormone binding protein (rGHBP) (rat, UniProt P16310 19-265); assay: BIAcore, bPeptide binding to rGHBP, appKD 1
T1 construct: extracellular domain; also called rat GHBP; soluble rGHBP
T1 sequence (looked up): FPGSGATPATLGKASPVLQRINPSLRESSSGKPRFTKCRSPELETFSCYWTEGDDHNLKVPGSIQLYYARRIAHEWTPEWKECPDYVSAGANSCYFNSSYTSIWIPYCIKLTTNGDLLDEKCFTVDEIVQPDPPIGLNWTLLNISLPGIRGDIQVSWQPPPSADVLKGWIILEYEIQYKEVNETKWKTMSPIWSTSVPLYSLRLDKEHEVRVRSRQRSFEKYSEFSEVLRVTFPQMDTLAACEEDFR

[10] = target: T1, rat growth hormone binding protein …; assay: BIAcore, bPeptide binding to rGHBP, appKD 2
[11] = target: T1, rat growth hormone binding protein …; assay: phage ELISA competition on rGHBP (100 ng/well); synthetic peptide against H5 phage
Procedure: Wells were coated with rGHBP (100 ng/well) and blocked as described. […] The peptides included two lysine residues added to the C-terminus of the sequence shown. Phage binding was detected with HRP-anti M13 phage antibody. Number and sequence of competing peptides are detailed on the right of figure. Control binding=binding in absence of peptide.

[12] = target: T1, rat growth hormone binding protein …; assay: phage ELISA competition on rGHBP (100 ng/well); synthetic H5 peptide against H5 phage
Procedure: Wells were coated with rGHBP (100 ng/well) and blocked as described. […] Phage was detected with HRP-anti M13 phage antibody and reported at OD₄₀₅ as described.

[13] = target: T1, rat growth hormone binding protein …; assay: phage ELISA, rGHBP 100 ng/well
Procedure: Alanine replacement for single or multiple amino acids is represented by “a” and for cysteine by “X”. FIG. 4A illustrates the binding of wild-type (WT) and mutant phage on wells coated with milk (2%), FcMAb (100 ng/well), rGHBP (100 ng/well), or MAb specific for the E-tag epitope (100 ng/well). FIG. 4B illustrates the ratio of mutant phage binding to rGHBP versus anti-E-tag MAb coated wells.
For this analysis, phage were input at 10¹⁰/well. Wild type (WT) and mutant phage were tested on wells coated with milk (2%), FcMAb (100 ng/well), rGHBP (100 ng/well), or MAb specific for the E-tag epitope (100 ng/well) (FIG. 4A). Detection with HRP-anti M13 phage antibody was done as described. In FIG. 4, alanine replacement for single or multiple amino acid is represented by “a” and for cysteine by “X”.

[14] = target: T1, rat growth hormone binding protein …; assay: TRFD
[15] = target: T1, rat growth hormone binding protein …; assay: TRFD, ED50 of specific binding to rGHBP-coated wells
Procedure: (§1) rGHBP (50-200 μg/ml in 50 mM NaHCO₃) was coated onto low-fluorescence MaxiSorp (Nunc) plates (100 μl/well) overnight at 4° C. The plates were blocked with PBS containing 2% non-fat milk and 0.05% BSA for 2 hr at room temperature, followed by three PBS washes. […] Ten microliters of the 10× concentrated material was added to the plates and incubated at room temperature for 1 hr to overnight.
(§2) The plates were then washed five times with Tris-buffered saline (pH 7.5) containing 0.1% Tween-20 (TTBS). To each well, 100 μl of europium-labeled streptavidin in DELFIA assay buffer (100 mM Tris-HCl, pH 7.8; 150 mM NaCl; 0.5% BSA; 0.05% bovine Ig; 0.05% NaN3; 0.01% Tween-20) was added and incubated for 1.5 hr at room temperature. The plates were then washed five times with TTBS and tapped dry. Subsequently, 100 μl of DELFIA enhancement solution (100 mM acetone-potassium hydrogen phthalate, pH 3.2; 15 mM 2-naphtyltrifluoroacetate; 50 mM tri(n-octyl)-phosphine oxide; 0.1% Triton X-100) was added to each well, and the plates were shaken for 10 min at room temperature.

[16] = target: T1, rat growth hormone binding protein …; assay: TRFD, ED50 of specific binding of biotinylated ligand to rGHBP-coated wells
Procedure: Wells were coated with rGHBP (100 ng/well) overnight as described. ED₅₀ and IC₅₀ were calculated from analysis of specific bLigand binding to rGHBP. Competitors were added 1 hr prior to addition of bLigand as described.
as §1, §2

Work on “growth hormone (GH), species not stated (ligand)” yielded an IC50 [1] of 5 nM, an IC50 [2] of 2 nM and an IC50 [3] of 0.4 nM. It also gave an IC50 (read off the curve) [4] of 5 nM.

With “biotinylated growth hormone (bGH) (ligand)” the EC50 [5] was 20 nM.

With DYKDALLHRSRCVRWGKWVCCLPPVGVGGAQANQGMSVQRFRHC [clone HH peptide] the ELISA signal (unit not given) [6] was 0.37, the ELISA signal (unit not given) [7] was 0.37 and the ELISA signal (unit not given) [8] was 0.35.

B1: peptide #445 (peptide)
peptide: DYKDLCQRLGVGWPGWLAGWCA
modifications: cysteine pairing not given here; also: biotinylated in bP form, position not given here
B1 showed an ELISA signal (unit not given) [6] of 0.11, an ELISA signal (unit not given) [7] of 0.14 and an ELISA signal (unit not given) [8] of 0.12.

B2: GHBP-H5 peptide (H5WT) (peptide)
peptide: DYKDLCQSLGVTYPGWLAGWCA
modifications: cysteine pairing not given here; also: biotinylated in some formats, position not given here
notes: also called H5 phage
B2 was tested, and the Kd [9] was 1300 nM, the Kd [10] was 3500 nM and the “IC50 (read off the curve)” value [11] was roughly 1000 nM. For the same molecule, the “IC50 (read off the curve)” value [12] was roughly 1000 nM.

DYKDLAQSLGVTYPGWLAGWAA (H5 phage mutant) [X---X (both C crossed out)]: no binding (tested: 10^10 phage/well) [13].

B3: peptide #447 (peptide)
peptide: DYKDLCQRLGVGWPGWLSGWCA
modifications: cysteine pairing not given here; also: biotinylated in bP form, position not given here
notes: H5 mutant from the secondary library, synthetic
For B3, the “fold better binding than H5WT or bP#445” value [14] was 10 fold, the Kd [9] was 160 nM and the Kd [10] was 2900 nM. The EC50 [15] was 700 nM, the EC50 [16] was 600 nM and the “IC50 (read off the curve)” value [11] was roughly 90 nM.

In the case of DYKDLCQRLGVTWPGWLAGWCA (cysteine pairing not given here; also: biotinylated, position not given here, H5 mutant, synthetic) [peptide #443], the Kd [9] is reported as 600 nM, the Kd [10] is reported as greater than 10000 nM and the “IC50 (read off the curve)” value [11] is reported as roughly 400 nM.

B4: peptide #418 (peptide)
peptide: DYKDLCQSWQVTWPGWLAGWCA
modifications: cysteine pairing not given here; also: biotinylated in bP form, position not given here
notes: H5 mutant from the secondary library (Y9 to W, L5 to W, G6 to E), synthetic
In the case of B4, the “fold better binding than H5WT or bP#445” value [14] is reported as 10 fold, the Kd [9] is reported as 150 nM and the Kd [10] is reported as 670 nM. The EC50 [16] was 800 nM and the “IC50 (read off the curve)” value [11] was roughly 100 nM.

DYKDLAQSLGVTYPGWLAGWCA (H5 phage mutant) [X---C (first C crossed out)]: no binding (tested: 10^10 phage/well) [13].
